Test results reported in US20240285790A1.

How the values were obtained:
Test in all cases: cell-based or functional assay
[1] = molecular target: HIV-1C1086 Env (HIV-1 C1086)
[2] = molecular target: HIV-1CM244 Env (HIV-1 CM244)
HIV-1AD8 Env (HIV-1 AD8) = molecular target: HIV-1AD8 Env (HIV-1 AD8)
[3] = molecular target: HIV-1BG505 Env (HIV-1 BG505)
HIV-1YU2 Env (HIV-1 YU2) = HIV-1YU2 Env (HIV-1 YU2) (UniProt P35961)
[4] = molecular target: HIV-1ZM109 Env (HIV-1 ZM109)
[5] = molecular target: HIV-1JRCSF Env (HIV-1 JRCSF) (UniProt P20871)
Sequence of HIV-1JRCSF Env (HIV-1 JRCSF) (P20871 32-848 limits assumed): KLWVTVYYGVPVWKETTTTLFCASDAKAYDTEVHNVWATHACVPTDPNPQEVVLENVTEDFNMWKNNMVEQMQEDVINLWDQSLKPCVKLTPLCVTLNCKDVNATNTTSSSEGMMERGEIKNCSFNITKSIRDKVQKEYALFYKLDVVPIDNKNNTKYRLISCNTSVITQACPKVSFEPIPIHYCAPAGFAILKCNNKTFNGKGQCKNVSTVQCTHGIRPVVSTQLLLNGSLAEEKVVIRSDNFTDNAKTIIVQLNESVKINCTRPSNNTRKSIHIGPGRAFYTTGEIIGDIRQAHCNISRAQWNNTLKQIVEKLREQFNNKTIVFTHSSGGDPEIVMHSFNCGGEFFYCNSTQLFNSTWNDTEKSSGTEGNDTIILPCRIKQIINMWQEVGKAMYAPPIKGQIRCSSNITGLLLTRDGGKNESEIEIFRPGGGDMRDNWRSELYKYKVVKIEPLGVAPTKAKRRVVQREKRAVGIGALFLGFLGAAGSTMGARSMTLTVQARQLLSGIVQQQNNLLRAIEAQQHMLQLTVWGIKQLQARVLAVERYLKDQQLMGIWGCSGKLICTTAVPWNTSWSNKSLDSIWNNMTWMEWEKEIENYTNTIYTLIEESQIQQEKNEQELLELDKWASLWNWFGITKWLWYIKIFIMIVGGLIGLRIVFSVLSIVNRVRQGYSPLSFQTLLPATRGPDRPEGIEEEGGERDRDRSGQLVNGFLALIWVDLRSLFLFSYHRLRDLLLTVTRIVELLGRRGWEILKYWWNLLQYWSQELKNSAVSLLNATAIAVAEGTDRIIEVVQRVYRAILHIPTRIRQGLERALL

Sequence of HIV-1YU2 Env (HIV-1 YU2) (P35961 32-843 limits assumed): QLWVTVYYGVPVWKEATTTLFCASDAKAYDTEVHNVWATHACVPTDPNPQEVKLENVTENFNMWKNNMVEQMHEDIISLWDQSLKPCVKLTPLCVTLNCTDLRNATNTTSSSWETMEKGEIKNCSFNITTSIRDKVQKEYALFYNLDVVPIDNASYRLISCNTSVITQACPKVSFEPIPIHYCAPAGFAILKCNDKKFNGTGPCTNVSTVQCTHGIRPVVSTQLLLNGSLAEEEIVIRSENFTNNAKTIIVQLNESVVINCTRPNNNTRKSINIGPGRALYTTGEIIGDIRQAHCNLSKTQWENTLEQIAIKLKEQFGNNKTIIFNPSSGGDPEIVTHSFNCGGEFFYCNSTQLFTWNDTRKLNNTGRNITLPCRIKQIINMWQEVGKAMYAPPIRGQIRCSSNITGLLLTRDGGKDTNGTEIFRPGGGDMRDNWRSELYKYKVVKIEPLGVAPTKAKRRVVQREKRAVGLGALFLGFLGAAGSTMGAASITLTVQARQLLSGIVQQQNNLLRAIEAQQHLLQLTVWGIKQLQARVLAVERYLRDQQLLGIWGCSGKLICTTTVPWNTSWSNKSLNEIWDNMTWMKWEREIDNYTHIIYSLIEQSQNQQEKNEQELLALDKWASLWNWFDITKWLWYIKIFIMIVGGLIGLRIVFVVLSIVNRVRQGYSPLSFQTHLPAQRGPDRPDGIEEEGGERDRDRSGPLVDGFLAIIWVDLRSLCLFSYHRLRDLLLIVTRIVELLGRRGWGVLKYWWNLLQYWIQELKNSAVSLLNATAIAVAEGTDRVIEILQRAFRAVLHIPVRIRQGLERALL

## 17b-CD4 conjugate
[1]
  Neutralization IC50: 0.269 µg/mL
[2]
  Neutralization IC50: 0.609 µg/mL
HIV-1AD8 Env (HIV-1 AD8)
  Neutralization IC50: 0.877 µg/mL
[3]
  Neutralization IC50: 2.64 µg/mL
HIV-1YU2 Env (HIV-1 YU2)
  Neutralization IC50: 0.082 µg/mL
[4]
  Neutralization IC50: 0.113 µg/mL
[5]
  Neutralization IC50: 0.807 µg/mL
